{"source": "patent US20240092924A1", "molecular_target": "wild-type human sodium taurocholate cotransporting polypeptide (human NTCP) (human) (UniProt Q14973)", "sequence (Q14973 whole entry)": "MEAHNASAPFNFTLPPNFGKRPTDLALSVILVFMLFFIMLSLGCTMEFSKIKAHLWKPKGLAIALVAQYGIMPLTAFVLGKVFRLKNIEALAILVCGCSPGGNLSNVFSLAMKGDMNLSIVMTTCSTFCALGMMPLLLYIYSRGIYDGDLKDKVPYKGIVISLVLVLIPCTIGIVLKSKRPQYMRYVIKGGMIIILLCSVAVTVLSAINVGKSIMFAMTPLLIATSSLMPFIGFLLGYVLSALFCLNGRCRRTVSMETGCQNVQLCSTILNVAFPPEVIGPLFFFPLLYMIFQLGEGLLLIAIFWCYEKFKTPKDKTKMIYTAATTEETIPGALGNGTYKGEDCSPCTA", "experiment": "cell-based or functional assay", "data": [{"substance": "preS1 peptide", "values": [{"measurement": "[3H]-taurocholic acid uptake by HepG2-human NTCP cells, at 1000 nM (fraction of uptake remaining)", "value": 0.05}, {"measurement": "inhibition of [3H]-taurocholic acid uptake by human NTCP-expressing HepG2, at 100 nM", "value": 60, "unit": "%"}, {"measurement": "inhibition of [3H]-taurocholic acid uptake by human NTCP-expressing HepG2, at 1000 nM", "value": 96, "unit": "%"}, {"measurement": "suppression of bile acid uptake into a hepatocyte cell line, at 1000 nM (FIG. 3 legend)", "value": "< 90", "unit": "%"}]}]}
